Experimental data: PMC12828747, “Nanobodies against Clostridioides difficile CDTb provide a toolkit for potent toxin neutralization and highly sensitive quantitation” (The Journal of Biological Chemistry, 2025)
Read-outs that look alike come from different tables or passages of the source.

T1: activated monomeric CDTb (75 kDa-activated monomer) (Clostridioides difficile)
T1 construct: source: recombinant pro-CDTb trypsinized in vitro, purified (SEC)
T1 chain: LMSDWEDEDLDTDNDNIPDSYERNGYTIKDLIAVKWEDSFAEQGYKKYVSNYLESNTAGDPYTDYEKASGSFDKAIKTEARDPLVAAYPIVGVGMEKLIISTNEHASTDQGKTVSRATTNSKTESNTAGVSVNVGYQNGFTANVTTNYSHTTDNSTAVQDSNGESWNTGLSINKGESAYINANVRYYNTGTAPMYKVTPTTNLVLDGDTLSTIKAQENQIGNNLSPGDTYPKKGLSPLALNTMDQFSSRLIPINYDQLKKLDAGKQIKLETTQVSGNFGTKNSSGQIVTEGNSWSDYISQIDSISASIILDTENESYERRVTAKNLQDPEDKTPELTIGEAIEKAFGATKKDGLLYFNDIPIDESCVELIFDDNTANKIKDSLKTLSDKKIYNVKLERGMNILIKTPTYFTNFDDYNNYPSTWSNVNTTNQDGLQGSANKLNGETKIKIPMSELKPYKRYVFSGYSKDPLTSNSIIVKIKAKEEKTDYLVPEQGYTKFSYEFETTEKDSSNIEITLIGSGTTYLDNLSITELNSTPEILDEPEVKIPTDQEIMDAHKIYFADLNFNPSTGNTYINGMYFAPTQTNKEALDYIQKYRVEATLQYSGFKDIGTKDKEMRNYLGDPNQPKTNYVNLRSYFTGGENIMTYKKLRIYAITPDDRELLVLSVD

T2: CDTb_(D1–D4) monomer (residues 43–876) (Clostridioides difficile, strain not …)
T2 construct: also called full-length (pro) CDTb; pro-CDTb
T2 chain: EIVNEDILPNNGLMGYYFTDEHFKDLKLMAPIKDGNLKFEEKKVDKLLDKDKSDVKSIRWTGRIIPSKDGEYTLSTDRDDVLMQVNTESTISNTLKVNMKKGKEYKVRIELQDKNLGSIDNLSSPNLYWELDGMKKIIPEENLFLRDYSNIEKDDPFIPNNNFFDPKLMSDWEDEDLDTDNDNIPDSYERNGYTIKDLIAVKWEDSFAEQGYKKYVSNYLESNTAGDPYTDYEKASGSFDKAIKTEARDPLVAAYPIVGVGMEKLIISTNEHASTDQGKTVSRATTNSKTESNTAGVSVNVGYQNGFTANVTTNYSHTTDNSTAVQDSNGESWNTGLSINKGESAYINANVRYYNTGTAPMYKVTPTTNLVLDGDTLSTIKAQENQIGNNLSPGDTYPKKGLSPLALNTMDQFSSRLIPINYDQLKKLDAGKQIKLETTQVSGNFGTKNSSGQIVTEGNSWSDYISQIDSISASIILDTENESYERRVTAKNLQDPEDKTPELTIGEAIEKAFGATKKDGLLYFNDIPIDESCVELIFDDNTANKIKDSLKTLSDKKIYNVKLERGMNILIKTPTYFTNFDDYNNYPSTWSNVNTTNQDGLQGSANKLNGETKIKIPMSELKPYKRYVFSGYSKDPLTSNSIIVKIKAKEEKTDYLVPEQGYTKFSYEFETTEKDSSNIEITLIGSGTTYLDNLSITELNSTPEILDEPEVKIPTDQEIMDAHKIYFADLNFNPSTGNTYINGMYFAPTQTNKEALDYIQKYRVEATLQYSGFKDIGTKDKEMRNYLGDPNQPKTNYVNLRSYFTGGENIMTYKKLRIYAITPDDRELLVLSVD

T3: CDTbD3′ (Clostridioides difficile, strain not …)
T3 chain: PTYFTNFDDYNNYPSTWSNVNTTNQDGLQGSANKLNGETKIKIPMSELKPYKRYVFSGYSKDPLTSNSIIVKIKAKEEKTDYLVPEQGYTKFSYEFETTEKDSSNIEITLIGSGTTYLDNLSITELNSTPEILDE

T4: heptameric CDTb (Clostridioides difficile, strain not …)
T4 construct: the ELISA text says only heptameric CDTb; also called CDTb heptamer; CDTb oligomers
T4 chain: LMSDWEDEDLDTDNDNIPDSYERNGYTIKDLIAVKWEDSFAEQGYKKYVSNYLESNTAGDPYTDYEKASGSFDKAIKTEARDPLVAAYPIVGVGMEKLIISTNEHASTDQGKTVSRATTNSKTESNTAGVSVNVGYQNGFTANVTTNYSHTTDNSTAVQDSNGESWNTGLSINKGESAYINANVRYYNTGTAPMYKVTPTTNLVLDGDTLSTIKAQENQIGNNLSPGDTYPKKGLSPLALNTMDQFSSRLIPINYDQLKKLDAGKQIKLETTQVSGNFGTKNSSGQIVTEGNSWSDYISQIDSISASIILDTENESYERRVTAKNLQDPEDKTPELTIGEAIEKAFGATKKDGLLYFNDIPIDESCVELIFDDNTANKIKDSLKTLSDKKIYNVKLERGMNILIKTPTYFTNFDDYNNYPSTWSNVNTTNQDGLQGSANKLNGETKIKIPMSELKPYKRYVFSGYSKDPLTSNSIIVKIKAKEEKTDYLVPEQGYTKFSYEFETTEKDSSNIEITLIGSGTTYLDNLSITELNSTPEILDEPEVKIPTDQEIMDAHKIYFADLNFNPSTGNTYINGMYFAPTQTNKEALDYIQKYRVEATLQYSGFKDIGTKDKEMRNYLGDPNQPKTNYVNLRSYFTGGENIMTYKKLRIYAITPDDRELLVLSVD


What was measured:
[1] = target: T5, CDTb_(D2–D3′) (210–749) (Clostridioides difficile, strain not …, UniProt O32739); assay: SPR; […] (10 mM HEPES pH 7.4, 150 mM NaCl, 0.05% Tween-20) with 0.5 mg/ml BSA; […]; details: both partners purified
[2] = target: T1, activated monomeric CDTb (75 …); assay: ELISA; sandwich ELISA: nonbiotinylated capture Nb coated (200 ng/well), purified CDTb (activated monomer or heptameric sample) in PBS-T + 2% BSA, biotinylated detection Nb (50 ng/well), streptavidin-HRP; room temperature; details: both partners purified
[3] = target: T2, CDTb_(D1–D4) monomer (residues 43–876); assay: SPR; Carterra LSA^XT, SAHC30M chip, 25 °C; biotinylated Nbs captured at eight densities; CDTb constructs injected at 0.3–300 nM (fourfold dilutions) without regeneration; HBS-T (10 mM HEPES pH 7.4, 150 mM NaCl, 0.05% Tween-20) with 0.5 mg/ml BSA; one-to-one kinetics model; details: both partners purified
[4] = target: T3, CDTbD3′; assay: as above; details: both partners purified
[5] = target: T2, CDTb_(D1–D4) monomer (residues 43–876); assay: as above; details: both partners purified
[6] = target: T6, CDTbD4 (760–876) (Clostridioides difficile, strain not …, UniProt O32739); assay: as above; details: both partners purified
T6 construct: also called domain 4

[7] = target: T5, CDTb_(D2–D3′) (210–749); assay: SPR; […] (10 mM HEPES pH 7.4, 150 mM NaCl, 0.05% Tween-20) with 0.5 mg/ml BSA; […]; details: both partners purified; remark: listed apart in the source
[8] = target: T7, native CDTb protein in cecal contents of mice infected with C. difficile R20291 (Clostridioides difficile R20291, UniProt A0A9R0BM17, strain); assay: ELISA; sandwich ELISA on cecal material of mice infected with R20291 (diluted to 10 mg/ml in PBS-T + 2% BSA): native CDTb bound by the coated capture Nb; details: one partner purified
T7 construct: CDTb made by C. difficile R20291 during infection of mice; source: endogenous, C. difficile R20291, in cecal material of infected mice

[9] = target: T4, heptameric CDTb; assay: ELISA; sandwich ELISA: nonbiotinylated capture Nb coated (200 ng/well), purified CDTb (activated monomer or heptameric sample) in PBS-T + 2% BSA, biotinylated detection Nb (50 ng/well), streptavidin-HRP; room temperature; details: both partners purified
[10] = target: T6, CDTbD4 (760–876); assay: SPR; Carterra LSA^XT, SAHC30M chip, 25 °C; biotinylated Nbs captured at eight densities; CDTb constructs injected at 0.3–300 nM (fourfold dilutions) without regeneration; HBS-T (10 mM HEPES pH 7.4, 150 mM NaCl, 0.05% Tween-20) with 0.5 mg/ml BSA; one-to-one kinetics model; details: both partners purified; remark: listed apart in the source
[11] = target: T3, CDTbD3′; assay: as above; details: both partners purified
[12] = target: T2, CDTb_(D1–D4) monomer (residues 43–876)
[13] = target: T3, CDTbD3′
[14] = target: T1, activated monomeric CDTb (75 …); assay: cell-based or functional assay
[15] = target: T7, native CDTb protein in cecal contents …; assay: ELISA; sandwich ELISA on cecal material of mice infected with R20291: biotinylated detection Nb on the captured native CDTb; details: one partner purified

Binder | binding result [1] | binding result [2] | binding result [4] | Kd [5] | koff [5] | kon [5] | Kd [6] | koff [6] | kon [6] | Kd [7] | koff [7] | kon [7] | binding result [8] | binding result [10] | Kd [11] | koff [11] | kon [11] | binding result [15] | also measured
Nb H8 (VHH, also called C1H8; source: Expi293F, transfected, purified from supernatant (TALON resin)) VHH: QVQLQESGGGLVQPGRSLRLSCEASDFSLNTFGAGWFRQVPGKEREGVSCISPSNSSTYYADSVKGRFTISRDNAKNTIYLQMNSLKPEDTGVYFCAARPITSAQALCTLLVSDSFTSWGQGTQVTVSS | no binding | binds | no binding | 1.6 nM | 0.00089 s⁻¹ | 560000 M⁻¹ s⁻¹ | 0.63 nM | 0.00083 s⁻¹ | 1.4e+06 M⁻¹ s⁻¹ | – | – | – | – | – | – | – | – | – | Kd [3]: 1.9 nM
Nb A9 (VHH, also called C1A9; source: Expi293F, transfected, purified from supernatant (TALON resin)) VHH: QVQLQESGGGLVQPGGSLRLSCTSSTNMLEFTAVAWWRQAPGKQRDLLAVITRAGVPNYADSKGRFAISRDNAKNTVDLLINTLEPDDTAVYTCNARTSGNINYWGQGTQVTVSS | – | binds | – | 0.024 nM | 3.2e-05 s⁻¹ | 1e+06 M⁻¹ s⁻¹ | – | – | – | 0.02 nM | 1.4e-05 s⁻¹ | 710000 M⁻¹ s⁻¹ | binds | no binding | ≤ 0.031 nM | ≤ 1e-05 s⁻¹ | 330000 M⁻¹ s⁻¹ | – | binding result [9]: binds
C1G1 (VHH) VHH: QVQLQESGGGLVQPGGSLTLSCAASGSIGSGSVMSWYRQAPGKERELVAQESGGRLRSYAKSVMGRFTISRDNSNNTVTLQMNNLKTDDTAIYYCHLVQFSGRYWGHGTQVTGS | – | – | – | – | – | – | – | – | – | – | – | – | – | – | – | – | – | – | binding result [12]: binds; binding result [13]: binds
Nb H12 (VHH, also called C1H12; source: Expi293F, transfected, purified from supernatant (TALON resin)) VHH: QVQLQESGGGLVQPGGSLRLSCAASGDIFSFYTMGWYRQAPGKQRELVATITSPGTTNYADSVKGRFTISRDNAKNMVYLQMTSLKPEDTAVYYCNADRILTTDPQFKYWGQGTQVTVSS | no binding | – | no binding | 0.05 nM | 6.7e-05 s⁻¹ | 1.4e+06 M⁻¹ s⁻¹ | 0.042 nM | 0.00013 s⁻¹ | 3.1e+06 M⁻¹ s⁻¹ | – | – | – | – | – | – | – | – | binds | EC50 of neutralization of CDT-induced rounding of Vero-GFP cells (1 nM CDTa + 7 nM activated monomeric CDTb, Nb 0.6–100 nM, 3 h postintoxication) [14]: ~6 nM
Nb G2 (VHH, also called C1G2; source: Expi293F, transfected, purified from supernatant (TALON resin)) VHH: QVQLQESGGGLVQPGGSLTLSCKASGIVFSTHTLAWYRQAPGKHRNVLAVITSAGIPNYDTDLKGRFTISRDNAKNTVYLQMNSLEPEDTAVYYCNARGPHPTVTGTTANYWGQGTQVTVSS | – | binds | – | ≤ 0.029 nM | ≤ 1e-05 s⁻¹ | 380000 M⁻¹ s⁻¹ | – | – | – | ≤ 0.022 nM | ≤ 1e-05 s⁻¹ | 480000 M⁻¹ s⁻¹ | binds | no binding | 0.18 nM | 4.1e-05 s⁻¹ | 240000 M⁻¹ s⁻¹ | – | –
Nb C6 (VHH, also called C1C6; source: Expi293F, transfected, purified from supernatant (TALON resin)) VHH: QVQLQESGGGLVEPGGSLRLSCVASGIVVASSTMSWYRQAPGKQRELVAQIFSGGNTNYRDSVRGRFTISKDNAKNTAYLQMDNLEPDDTAVYYCYARGFWGQGTQVTVSS | – | binds | no binding | 0.018 nM | 1.4e-05 s⁻¹ | 790000 M⁻¹ s⁻¹ | – | – | – | 0.035 nM | 4.4e-05 s⁻¹ | 1.3e+06 M⁻¹ s⁻¹ | – | no binding | – | – | – | binds | –
